Experimental data published in patent US20250277023A1 (published 2025).
Substitutions are numbered along the chain they refer to. Names and notes keep the numbering of the source.

B1: R1086: TIGIT_VH_IL15RA (R35C)/TIGIT_VL_IL15 (E93C)/PD-L1-Fab (bispecific antibody)
chain 1: QVQLVQSGAEVKKPGSSVKVSCKASGYSFTSYWMNWVRQAPGQGLEWIGMIRPSDSETRLNQMFKDRVTITVDKSTSTAYMELSSLRSEDTAVYYCAGIHDYGHGAYWGQGTLVTVSSGGGGSGGGGSGGGGSGGGGSGITCPPPMSVEHADIWVKSYSLYSRERYICNSGFKCKAGTSSLTECVLNKATNVAHWTTPSLKCIRDPALVHQRPAPPSTVTTAGVTPQPESLSPSGKEPAASSPSSNNTAATTAAIVPGSQLMPSKSPSTGTTEISSHESSHGTPSQTTAKNWELTASASHQPPGVYPQGHSDTTEPKSSDKTHTCPPCPAPELLGGPSVFLFPPKPKDTLMISRTPEVTCVVVDVSHEDPEVKFNWYVDGVEVHNAKTKPREEQYNSTYRVVSVLTVLHQDWLNGKEYKCKVSNKALPAPIEKTISKAKGQPREPQVYTLPPSREEMTKNQVSLTCRVKGFYPSDIAVEWESNGQPENNYKTTPPVLKSDGSFFLASKLTVDKSRWQQGNVFSCSVMHEALHNHYTQKSLSLSPGK
chain 2: DIQMTQSPSSLSASVGDRVTITCRASENIYSNLAWYQQKPGKSPKLLVYAASHLPDGVPSRFSGSGSGTDYSLTISSLQPEDFATYYCQHFWGTPRTFGQGTKLEIKGGGGSGGGGSGGGGSGGGGSGNWVNVISDLKKIEDLIQSMHIDATLYTESDVHPSCKVTAMKCFLLELQVISLESGDASIHNTVQDLIILANNSLSSNGNVTESGCKECEELECKNIKEFLQSFVHIVQMFINTS
heavy: QVQLQESGPGLVKPSETLSLTCAVYGDSITSGYWNWIRKPPGKGLEYIGYISYTGSTYQNPSLKSRITMSRDTSKNQYYLKLSSVTAADTAVYYCARSRAWIRTYFDYWGQGTLVTVSSASTKGPSVFPLAPSSKSTSGGTAALGCLVKDYFPEPVTVSWNSGALTSGVHTFPAVLQSSGLYSLSSVVTVPSSSLGTQTYICNVNHKPSNTKVDKRVEPKSCDKTHTCPPCPAPELLGGPSVFLFPPKPKDTLMISRTPEVTCVVVDVSHEDPEVKFNWYVDGVEVHNAKTKPREEQYNSTYRVVSVLTVLHQDWLNGKEYKCKVSNKALPAPIEKTISKAKGQPREPQVYTLPPSREEMTKNQVSLWCLVKGFYPSDIAVEWESNGQPENNYDTTPPVLDSDGSFFLYSDLTVDKSRWQQGNVFSCSVMHEALHNHYTQKSLSLSPGK
light: DIQMTQSPSSLSASVGDRVTITCSVSSSISSSNLHWYQQKPGKAPKPWIYGTSNLASGVPSRFSGSGSGTDYTLTISSLQPEDFATYYCQQWSSYPLTFGQGTKLEIKRTVAAPSVFIFPPSDEQLKSGTASVVCLLNNFYPREAKVQWKVDNALQSGNSQESVTEQDSKDSTYSLSSTLTLSKADYEKHKVYACEVTHQGLSSPVTKSFNRGEC
B2: R1084: PD-L1_VH (G44C)_IL15RA/PD-L1_VL(Q101C)_IL15/TIGIT-Fab (bispecific antibody)
chain 1: QVQLQESGPGLVKPSETLSLTCAVYGDSITSGYWNWIRKPPGKCLEYIGYISYTGSTYQNPSLKSRITMSRDTSKNQYYLKLSSVTAADTAVYYCARSRAWIRTYFDYWGQGTLVTVSSGGGGSGGGGSGGGGSGGGGSGITCPPPMSVEHADIWVKSYSLYSRERYICNSGFKRKAGTSSLTECVLNKATNVAHWTTPSLKCIRDPALVHQRPAPPSTVTTAGVTPQPESLSPSGKEPAASSPSSNNTAATTAAIVPGSQLMPSKSPSTGTTEISSHESSHGTPSQTTAKNWELTASASHQPPGVYPQGHSDTTEPKSSDKTHTCPPCPAPELLGGPSVFLFPPKPKDTLMISRTPEVTCVVVDVSHEDPEVKFNWYVDGVEVHNAKTKPREEQYNSTYRVVSVLTVLHQDWLNGKEYKCKVSNKALPAPIEKTISKAKGQPREPQVYTLPPSREEMTKNQVSLTCRVKGFYPSDIAVEWESNGQPENNYKTTPPVLKSDGSFFLASKLTVDKSRWQQGNVFSCSVMHEALHNHYTQKSLSLSPGK
chain 2: DIQMTQSPSSLSASVGDRVTITCSVSSSISSSNLHWYQQKPGKAPKPWIYGTSNLASGVPSRFSGSGSGTDYTLTISSLQPEDFATYYCQQWSSYPLTFGCGTKLEIKGGGGSGGGGSGGGGSGGGGSGNWVNVISDLKKIEDLIQSMHIDATLYTESDVHPSCKVTAMKCFLLELQVISLESGDASIHNTVQDLIILANNSLSSNGNVTESGCKECEELEEKNIKEFLQSFVHIVQMFINTS
heavy: QVQLVQSGAEVKKPGSSVKVSCKASGYSFTSYWMNWVRQAPGQGLEWIGMIRPSDSETRLNQMFKDRVTITVDKSTSTAYMELSSLRSEDTAVYYCAGIHDYGHGAYWGQGTLVTVSSASTKGPSVFPLAPSSKSTSGGTAALGCLVKDYFPEPVTVSWNSGALTSGVHTFPAVLQSSGLYSLSSVVTVPSSSLGTQTYICNVNHKPSNTKVDKRVEPKSCDKTHTCPPCPAPELLGGPSVFLFPPKPKDTLMISRTPEVTCVVVDVSHEDPEVKFNWYVDGVEVHNAKTKPREEQYNSTYRVVSVLTVLHQDWLNGKEYKCKVSNKALPAPIEKTISKAKGQPREPQVYTLPPSREEMTKNQVSLWCLVKGFYPSDIAVEWESNGQPENNYDTTPPVLDSDGSFFLYSDLTVDKSRWQQGNVFSCSVMHEALHNHYTQKSLSLSPGK
light: DIQMTQSPSSLSASVGDRVTITCRASENIYSNLAWYQQKPGKSPKLLVYAASHLPDGVPSRFSGSGSGTDYSLTISSLQPEDFATYYCQHFWGTPRTFGQGTKLEIKRTVAAPSVFIFPPSDEQLKSGTASVVCLLNNFYPREAKVQWKVDNALQSGNSQESVTEQDSKDSTYSLSSTLTLSKADYEKHKVYACEVTHQGLSSPVTKSFNRGEC
B3: R1085: TIGIT_VH_IL15RA (P67C)/TIGIT_VL_IL15 (E90C)/PD-L1-Fab (bispecific antibody)
chain 1: B1 chain 1 with C174R, P206C
chain 2: B1 chain 2 with E218C, C221E
heavy: B1 heavy
light: B1 light
B4: R1081: TIGIT_VH (G44C)_IL15RA/TIGIT_VL(Q100C)_IL15/PD-L1-Fab (bispecific antibody)
chain 1: B1 chain 1 with G44C, C174R
chain 2: B1 chain 2 with Q100C, C221E
heavy: B1 heavy
light: B1 light
B5: R1082: TIGIT_VH (W108C)_IL15RA/TIGIT_VL(S43C)_IL15/PD-L1-Fab (bispecific antibody)
chain 1: B1 chain 1 with W108C, C174R
chain 2: B1 chain 2 with S43C, C221E
heavy: B1 heavy
light: B1 light
B6: R1083: TIGIT_VH (L45C)_IL15RA/TIGIT_VL(F98C)_IL15/PD-L1-Fab (bispecific antibody)
chain 1: B1 chain 1 with L45C, C174R
chain 2: B1 chain 2 with F98C, C221E
heavy: B1 heavy
light: B1 light
B7: R1124: PD-L1_VH_IL21R/TIGIT_VL_IL21/TIGIT_VH/PD-L1-VL (bispecific antibody)
chain 1: not shown
chain 2: not shown
heavy: B2 heavy
light: EIVLTQSPDFQSVTPKEKVTITCSVSSSISSSNLHWYQQKPDQSPKLLIYGTSNLASGVPSRFSGSGSGTDFTLTINSLEAEDAATYYCQQWSSYPLTFGQGTKLEIKRTVAAPSVFIFPPSDEQLKSGTASVVCLLNNFYPREAKVQWKVDNALQSGNSQESVTEQDSKDSTYSLSSTLTLSKADYEKHKVYACEVTHQGLSSPVTKSFNRGEC

Molecular target: T1, PD-L1 (on CHO-PD-L1 cells) (UniProt Q9NZQ7 19-290)
Assay: FACS binding; Fig. 24

T1 sequence (Q9NZQ7 19-290): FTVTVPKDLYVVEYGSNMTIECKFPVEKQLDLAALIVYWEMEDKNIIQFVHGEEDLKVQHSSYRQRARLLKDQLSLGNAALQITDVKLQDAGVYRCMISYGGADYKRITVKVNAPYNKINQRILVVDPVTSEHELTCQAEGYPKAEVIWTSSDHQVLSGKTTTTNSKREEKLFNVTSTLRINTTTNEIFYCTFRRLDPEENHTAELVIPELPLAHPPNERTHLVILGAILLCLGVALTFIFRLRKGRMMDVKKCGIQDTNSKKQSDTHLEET

Binder | EC50 [nM]
B1 | 2.02
B2 | 5.85
B3 | 3.2
B4 | 2.37
B5 | 2.78
B6 | 2.29

Molecular target: T1, PD-L1 (on CHO-PD-L1 cells)
Assay: FACS binding; Fig. 22

Binder | EC50 [nM]
B7 | 13.7
